The domain aggregation screens of Martell et al. (2025)

Test: soluble fraction after stress (log2 fold change); higher = more stays soluble; pooled small domains, quantitative proteomics
Conditions: stress: pH 4
Method in brief: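 Pooled custom libraries of small protein domains were subjected to pH 4 and measured by high-throughput quantitative proteomics. The log2 fold change in soluble amount per domain is reported, higher values meaning more remained soluble. This is used as a measure of aggregation propensity.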

Row | Sequence | soluble fraction (log2)
1 | HMILNDRSELLDVVKRVIAANPASVADYRKGKKKVLGFLVGQAMKETKGQADPRILNELFLQELGEN | 0.0701
2 | HMVAQEVPYSTFVMRLDRNEVDAVKIIDGNEIEGTFKSPNGDLVQFKTLIPYQDTELMPLLKQKGVRISGS | ≥ 0.43
3 | HMENEFEAYSDGSSIQLNDPSKATYVVFDRQGRLLHLFQNHSLSSLSIERKNQILIITRETADGVSVKKIV | -0.167
4 | HMTIAFPSNDVDAVVGYFESRGFDRTASISTATVILQQAKIDGVKVFELIDTLQGMDKVQLSYIVTEILN | -0.0582
5 | HMLPELQPGQTFSARIQQALPDNTYRALVAGKQLTLQLPEGAKAGDELELVVLDRSARVIIARQVD | 0.336
6 | HMDIYLDEVNRKILHLLSQGIKTRSLREYINLSMSAIEKRKKHMKELFLVEDGKDETLLNEARNKGF | -0.64
7 | HMLTGISALKPTEAFPDEIFYEIFEIEDNIERTQYIESLRNTARQLKRVTEFNNLYKSFVLDYAQRQKQ | -0.375
8 | HMGDITALMPGKVIQIIVKEGQEIKVGDPLIVIESMKMENTISSEVNGTIKSINIQIDDNVQFDQVLFTV | -1.03
9 | HMGKAYMVPDVKNKSVNQAQLLLADKHMNGVVVDSSYVKELPAGIVLDQTPVGGMKVKEGRTVYLTINSD | 0.0742
10 | HMDFPYISGIEIAAIKNREFIRIETDKAQEIAIALDKSGIPFSARFSDAEMVLTYDGSYKEQVEDIIAKA | -0.808
11 | HMERFVVISKDKYANLREEASTNSKVLAKVDNSYLIYNTNTYNENKDWYSVQIERDGNYYQVGYIHKSQL | -1.82
12 | HMSQKVQEDFLGDIRKNEIAVTVFLINGVKLQGVITWFDDASILLRRDGHTQLIYKHAVSTIMPGVAVDI | -0.632
13 | HMDDDAELLLKKLSAAGGELPFHDRSEPAEIEAAFGLSKSAFKRALGKLLKAGKVVKTQQGIQLK | 0.266
14 | HMEAEMLYQVKVKITNLVIRSGAGAIYPIVKRYASGVLPIYEEKNGYGKIAVGQWISLSPEFVERVD | -0.0106
15 | HMEAPNELLVPEGARPARADRVLAAAFPEHSRTALQRAFDAGLVRRANLVLSRDTAVAGGDRIAFSLPAV | 0.0302
16 | HMDAPRFAAGDAVRVAGLVSKPQHNGRAGSVLSYDPVSLRYIVKVDGEDEPLKLKPENVLMPA | 0.0764
17 | HMSVSVEEDADGRVWVYYQDQKMDITDLFDENGVYGFNLEKGDRTVYVEVTKNADGTYSFTQTD | -1.34
18 | HMESSNLESQLKKGIVPNLNGLSAKDALFLLENSGFNVKLYGMGSVKKQSLEAGKKYNKGDKITLIL | 0.219
19 | HMENLTLVIGNKLKNIRNSRNLSLDDVAELTGVSKAMLGQIERGKSNPTVSTLWKISTGLRVSFSSFIDE | -0.249
20 | HMGGRRHANMSREEEAAFLAPFFEKAAQGGILVVREIRQALDAHLGRTVPLSTVYNLLHRHNWRKL | 0.379
21 | HMTVNLPPKQKAAILLMSLPPEVSAQLFKELGPDEVHAITLEISKLPPISPDVRAQVIDEFLHSS | -0.226
22 | HMIDQNEDLLSGYIDEVLSQNPDKVNEYLKGKSGLIGFFMGQIKQKSATALDAALLKSQLETALEKLRIK | -0.00948
23 | HMVERQVTVPNLTGLGVADAQRLAQSMELDIEVLGEQESTDARPGAVLQQTPGAGTRAAAGSVVSVLV | -0.179
24 | HMVDLANIDPIASSIKLNGAEADASFNTLEDRRVSVSGSFEENKNYTMEYTFKDYAGGSVTGTLDFKTLA | 0.129
25 | HMASLSRRELEVLELLALRLTVKEVAERLVISELTAKRHTSNIYQKLGVNRRRDALAAAQARGLLGAR | -1.09
26 | HMKDVVAPMSGRVVRLMVAAGDEVVKRQALVVVEAMKMENVLTAPKEGRIKKVPVREGMTVEVGQTLVSFE | -0.274
27 | HMKNTYTVVSGDTLWGIASRKLGGGSNWTKIYDANAATIESVANRRRGGRGSDHGHWIYPGTVLTI | 0.216
28 | HMTKGVQMFAEQLKRTRQSRHYSQAEIASKLGVTQQAIAKWETGVSTPSPTSISKLSDILGISTDVLLKGA | ≥ 0.43

Row | Sequence | soluble fraction (log2)
29 | HMTSLYDILGIAKTADSQTIKTAFKKKALLYHPDKNNGNLKKEEIFKKISTAYQILSDPKSRANYDLSIA | 0.22
30 | HMNTVSVGNLGLSVRAVNALKQAGIDTYDKLQELSWEELLLIPKLGQVTAAEIYRFITSYKKG | -0.491
31 | HMKSISMANGNVQLRINGVLASSLEVAALSPEDIKRVEYHDNPGLRYGEGIDIVLDYITIKRT | -1.16
32 | HMAQPIPSGADIRAAREAAGMTLRRFAEYIAGPDFSTWSRYETGKPIRVKNISPEVWQRVRKFIAQNKG | 0.129
33 | HMSDEVNTDKAFRAIDSTLNRNVKGIAPRDHTLLRNTMITYFKSNDYIDYDTMIQSTLENYKPTELEQDKM | 0.135
34 | HMAFDGIVLKNITNALKELINGKINKIQQSSKDNLTLSIYNQKSYNLYIDISANNYRVNLTTHSE | 0.22
35 | HMAEPLYKQVKNKIIQNLTSDEWKPGSVIPSETKLAETYGVGVSTIRMAIGELVAARILIRRQGKGTFVSS | 0.238
36 | HMGKRKDFTYTGNYFSEYKNQTFPSLSSFLKLVGKYENYGTIKRRVRFGWDIDEAILRENIN | -0.231
37 | HMKPDMAVIVGSRTLTFATTTDRQILVLRTDGTMVNRLSMKAGETRTITLPAGVYIVNGKKIIV | 0.22
38 | HMLQIGDEEFIENIVKQVIDENQKAVDDYKKGKEKVMAFLIGQVMKKTKGKVNSEIVEKTIKKL | -0.565
39 | HMSNIVNYEVYVYQNDAWDLLARYPSEKRAEAIEYAKSTEFSLNRPTKVIRETYDLDTQKFQEALIYLSE | -0.304
40 | HMPPQPATQNTKAQVMQLAREKELMAGEGRGANVEALEKFANEHGISLRGMTEEQAEQLVKLLMEYTP | 0.19
41 | HMTTYSVDLGDIRAVADSDGKLVELTLHAAVTTHYSHSELADRLNLAFTALREEAQADYETRY | -0.0597
42 | HMQPSQTLSATVEFPDRLDRFLALAFPEVSRARFQRLIAEGHVSVEGVPATEIRHKLKAGQRVEAVIPPA | 0.197
43 | HMDVTDRLARRLQGLRSAQGLSLDALAARSGVSRSNISLIERGQSSPTATVLDKLSAALGVTLAALFEEP | 0.00664
44 | HMVTTTEAAKMLLVNAGHDVIKDGLTGASWASNTMKLADADGLLASVATKPNDALPRQYAAQMIYN | 0.265
45 | HMFSQDQIFLRSGEKIDARVIEVTPEFIKYKSKANPEGPLYSKKITDVLLITYANGTTEVYE | -0.749
46 | HMNKVAQFYRELVSTLSERLRNGERDIDALVEQARVRISQSGELTQSEIENVIRAVRRDLEEFALSYEE | -1.73
47 | HMEPVQFIQFKIPDGHPWSGQLLREVRLPPGTLVVLLKHDGKNIIPNGETPLLAGDSVILSAASPT | -0.459
48 | HMRPFAMNLLEKHKADIEVWLKHPNMTNTQIKRLLEELGTSVSVSSIDRFISTSFPKLPKHT | -0.207
49 | HMDLPDYYFRVRENGAVVFRVGTENRQRRIEMVEIATVNVKNGNIKPHGEVDLTKADRLAIGEWLAARQAQ | -0.27
50 | HMVTNELFGTRLRAFRKEKGLTIEQLAERVGLSPNYLGDIERGKKLPSMATFIRLVNELDISADEL | 0.174
51 | HMPSPSTLAKVDPFLLVTNADSLLMARPDDSELRAAIITAHINLAKTNNSVDHYKEVLKIEPQNALANYN | 0.0418
52 | HMLIRKGVVSFFNDAKGYGFIKDLVTQESAFVHVNSLSETIKEHDKVTFEVEMGHKGANAVNVKLVK | -0.72
53 | HMRSIMAVSNYRHKKILEMVYQRKSVSADELAAEFGVSKITIRRDLDTLAMDKLLERTRGGAISISD | -0.128
54 | HMDGLTEQQADDILAFISIKGTNAEVLAALENYAGRNETFDTGLSELKVVASNLAAFGMPEENFVVDL | 0.0229
55 | HMNMDLGHSISKLRTDANLTQEKFAQILNVSRQTVQKWEYGEALPDIHNIIKIAKFFNISLDALVLRS | -0.222
